For experiment [1], the target named is T1, human CEACAM6 on 293T cells (293T-huCEACAM6 cells) (human, UniProt P40199 35-320).
T1 sequence (looked up): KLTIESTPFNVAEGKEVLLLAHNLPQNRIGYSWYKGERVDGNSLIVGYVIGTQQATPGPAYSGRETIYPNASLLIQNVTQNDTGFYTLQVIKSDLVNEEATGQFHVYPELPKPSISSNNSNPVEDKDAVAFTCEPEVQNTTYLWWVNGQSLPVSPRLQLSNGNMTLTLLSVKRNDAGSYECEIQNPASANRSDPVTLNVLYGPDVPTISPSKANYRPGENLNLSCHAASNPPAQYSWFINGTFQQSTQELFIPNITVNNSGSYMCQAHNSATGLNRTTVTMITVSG
In words: cell-based or functional assay.

For experiment [2], the target named is T1, human CEACAM6 on 293T cells …. The experiment can be described thus: flow cytometry on 293T-huCEACAM6 cells with against without 100 nM soluble CEACAM6.
Experiment [3] has as its target T2, human CEACAM3 protein (human, UniProt P40198 35-155).
T2 construct: Bought protein; also called huCEACAM3
T2 sequence (looked up): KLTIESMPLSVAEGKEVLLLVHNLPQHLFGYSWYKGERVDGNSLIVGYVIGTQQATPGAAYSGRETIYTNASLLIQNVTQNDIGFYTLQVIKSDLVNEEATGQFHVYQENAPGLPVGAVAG
In words: ELISA, human CEACAM3 protein coated on the plate, anti-human Fc-HRP, OD450. From the text:
(§1) Binding of recombinant anti-CEACAM5/6 dual-binding monoclonal antibodies against human and cynomolgus CEACAM5, and human CEACAM6 (Uniprot P40199), human CEACAM 1, 3 (NP_001806.2, Sino Biological 11933-H08H) and 8 (NP_001807.2, Acro Bio CE8-H5224) were detected by ELISA. Anti-CEACAM5/6 dual-antibodies were serially diluted in staining buffer (PBS containing 2% FBS). […] ELISA was used to test the binding between antibody containing supernatant or purified antibodies and the antigen. Briefly, the antigens were coated on a 96-well high binding plate overnight at 4° C. The plate was washed with PBST three times, incubated with blocking buffer (2% Bovine Serum Albumin) for one hour at 37° C., washed with PBST three times and incubated with antibody containing supernatant or purified antibodies at desired dilutions or concentrations for one hour at 37° C. A secondary antibody, anti-human Fc-HRP (Jackson Laboratory, 109-035-097) was used for detection of the targeted antibody. TMB and stopping solution were used for detection of HRP signal. The HRP signal was read on a SPECTRAMAX plate reader.

Experiment [4] addresses T3, human CEACAM8 protein (human, UniProt P31997 35-320).
T3 construct: Bought protein; also called huCEACAM8
T3 sequence (looked up): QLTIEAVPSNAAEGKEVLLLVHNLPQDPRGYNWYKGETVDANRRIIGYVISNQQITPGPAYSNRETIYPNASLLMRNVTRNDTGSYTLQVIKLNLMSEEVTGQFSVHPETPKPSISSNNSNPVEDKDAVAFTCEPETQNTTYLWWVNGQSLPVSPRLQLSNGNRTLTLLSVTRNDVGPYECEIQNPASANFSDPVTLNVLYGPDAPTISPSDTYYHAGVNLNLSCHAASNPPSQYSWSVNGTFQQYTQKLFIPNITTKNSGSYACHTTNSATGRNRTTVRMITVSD
The experiment can be described thus: ELISA, human CEACAM8 protein coated on the plate, anti-human Fc-HRP, OD450.
Text: as §1
(ELISA stands for enzyme-linked immunosorbent assay.)

Experiment [5] deals with T2, human CEACAM3 protein. The experiment can be described thus: ELISA, antigen coated on plate.
Experiment [6] deals with T3, human CEACAM8 protein. The experiment can be described thus: ELISA, antigen coated on plate.

B1: PR304294 (antibody, human IgG1, kappa, V domains shown)
VH: EVQLLESGGGLVQPGGSLRLSCAASGFTFSSYAMSWVRQAPGKGLEWVSAISGTTYNTYYAGSVKGRFTISRDNSKNTLYLQMNSLRAEDTAVYYCAKGISVAGYYYYGMDVWGQGTTVTVSS
VL: EIVMTQSPATLSVSPGERATLSCRASQSVISNLAWYQQKPGQAPRLLIYGASTRATGIPARFSGSGSGTEFTLTISSLQSEDFAVYYCHQYNNWPLTFGGGTKVEIKR
notes: Recombinant full antibody
As to B1, the “Internalization of pHAb-dye-labelled antibody, MFI (37° C.-4° C.)/DAR” value in experiment [1] was found to be 14700. Also, the “fold change of EC50 at the presence of 100 nM soluble protein” value in experiment [2] is 2.1 fold. Besides, the binding result is listed as “no binding (tested: 100 nM)” with human CEACAM3 protein [3] and “no binding (tested: 10 nM)” with human CEACAM8 protein [4].

B2: PR304171 (antibody, human IgG1, kappa, V domains shown)
VH: not shown
VL: EIVMTQSPATLSVSPGERATLSCRASQNVISNLAWHQQKPGQAPRLLIYTTSTRATGIPARFSGSGSGTEFTLTISSLQSEDFAVYYCQQYNNWPLTFGGGTKVEIKR
notes: Recombinant full antibody
With B2, the binding result in the experiment with human CEACAM3 protein [5] and with human CEACAM8 protein [6] was “no binding” throughout.
